These are literature values, as cited in PMC6478124.

Usually Kd stands for the equilibrium constant for the complex coming apart.

This data set has as its target HDM2 (Homo sapiens) (UniProt Q00987).

Chain of HDM2 (Homo sapiens) (Q00987 whole entry): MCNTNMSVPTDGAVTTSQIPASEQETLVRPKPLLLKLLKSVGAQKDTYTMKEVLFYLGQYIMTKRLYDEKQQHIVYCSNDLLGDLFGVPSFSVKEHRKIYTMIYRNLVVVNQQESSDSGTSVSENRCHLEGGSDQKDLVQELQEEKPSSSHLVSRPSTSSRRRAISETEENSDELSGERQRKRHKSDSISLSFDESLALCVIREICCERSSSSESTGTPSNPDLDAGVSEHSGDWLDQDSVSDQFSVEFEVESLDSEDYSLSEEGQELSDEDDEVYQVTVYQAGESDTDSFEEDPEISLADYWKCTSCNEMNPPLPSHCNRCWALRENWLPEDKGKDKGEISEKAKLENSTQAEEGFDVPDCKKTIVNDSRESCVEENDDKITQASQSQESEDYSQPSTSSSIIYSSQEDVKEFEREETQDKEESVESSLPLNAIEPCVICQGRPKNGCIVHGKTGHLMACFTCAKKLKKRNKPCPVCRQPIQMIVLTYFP

“stapled p53 transactivation domain peptide transactivation domain α-helix (from UniProt P04637)”: the Kd is 6.76 nM.
